Measured values as given in patent US20110207796.

Target: human alpha-synuclein (wild-type, recombinant)

B1: IKBKB (protein)
chain: MSWSPSLTTQTCGAWEMKERLGTGGFGNVIRWHNQETGEQIAIKQCRQELSPRNRERWCLEIQIMRRLTHPNVVAARDVPEGMQNLAPNDLPLLAMEYCQGGDLRKYLNQFENCCGLREGAILTLLSDIASALRYLHENRIIHRDLKPENIVLQQGEQRLIHKIIDLGYAKELDQGSLCTSFVGTLQYLAPELLEQQKYTVTVDYWSFGTLAFECITGFRPFLPNWQPVQWHSKVRQKSEVDIVVSEDLNGTVKFSSSLPYPNNLNSVLAERLEKWLQLMLMWHPRQRGTDPTYGPNGCFKALDDILNLKLVHILNMVTGTIHTYPVTEDESLQSLKARIQQDTGIPEEDQELLQEAGLALIPDKPATQCISDGKLNEGHTLDMDLVFLFDNSKITYETQISPRPQPESVSCILQEPKRNLAFFQLRKVWGQVWHSIQTLKEDCNRLQQGQRAAMMNLLRNNSCLSKMKNSMASMSQQLKAKLDFFKTSIQIDLEKYSEQTEFGITSDKLLLAWREMEQAVELCGRENEVKLLVERMMALQTDIVDLQRSPMGRKQGGTLDDLEEQARELYRRLREKPRDQRTEGDSQEMVRLLLQAIQSFEKKVRVIYTQLSKTVVCKQKALELLPKVEEVVSLMNEDEKTVVRLQEKRQKELWNLLKIACSKVRGPVSGSPDSMNASRLSQPGQLMSQPSTASNSLPEPAKKSEELVAEAHNLCTLLENAIQDTVREQDQSFTALDWSWLQTEEEEHSCLEQAS
- in vitro kinase reaction, phosphorylation of alpha-synuclein: shown to be incapable of directly phosphorylating alpha-synuclein
